Assays:
[1] = biological target: NRPS regulator NrpR (amino acids 1-285), recombinant, untagged (Streptococcus salivarius K12); assay: SEC; Superdex 200 10/300 GL; 20 mM Tris-HCl pH 8.5, 200 mM NaCl, 1 mM TCEP, 5% glycerol; 1 mg/mL NrpR, room temperature; mass standards
[2] = biological target: fluorescein-labeled synthetic NRPS-inducing peptide (NIP) (Streptococcus salivarius K12); assay: fluorescence polarisation; 1 nM fluorescein-labeled NIP titrated with purified NrpR; 20 mM potassium phosphate, 75 mM NaCl, 2% DMSO, 1 mM EDTA, 0.0005% Tween 20; binding buffer adjusted to near neutral pH (pH 6.5 to 7.5) or pH 5.0
[3] = biological target: NRPS regulator NrpR (amino acids 1-285), recombinant, untagged (Streptococcus salivarius K12)

Row | stoichiometry N [1] | fold decrease in affinity against pH 5.5 [2] [fold] | sarD transcript level (qRT-PCR) in the nip* mutant with 100 nM synthetic NIP at pH 5.5 or 6.0, against the unsupplemented mutant; no significant induction at pH 6.5-7.5 or pH 5.0 [3] [fold] | Substance
1 | 2 | > 2 |  | NRPS regulator NrpR (amino acids 1-285), recombinant, untagged (receptor)
2 |  |  | > 75 | fluorescein-labeled synthetic NRPS-inducing peptide (NIP)

Source: publication PMC12186490, “Environmental pH controls antimicrobial production by human probiotic Streptococcus salivarius” (Journal of Bacteriology, 2025)
